Numbering of substitutions follows the chain as printed.

For series [1], the system named is Arabidopsis AHAS protein. Particulars: increasing concentrations of imazethapyr, 5% DMSO; FIGS. 7, 9, 10, 11. On the procedure:
(§1) The enzymatic properties of wild-type and variant AHAS produced in E. coli were measured by a modification of the method of Singh et al. (Anal. Biochem […]:173-179, 1988) as follows:
(§2) A reaction mixture containing 1× AHAS assay buffer (50 mM HEPES pH 7.0, 100 mM pyruvate, 10 mM MgCl2, 1 mM thiamine pyrophosphate (TPP), and 50 μM flavin adenine dinucleotide (FAD)) was obtained either by dilution of enzyme in 2× assay buffer or by addition of concentrated enzyme to 1× AHAS assay buffer. All assays containing imazethapyr and associated controls contained a final concentration of 5% DMSO due to addition of imazethapyr to assay mixtures as a 50% DMSO solution. Assays were performed in a final volume of 250 μL at 37° C. in microtiter plates. After allowing the reaction to proceed for 60 minutes, acetolactate accumulation was measured […] as described by Singh et al., Anal. Biochem 171:173-179, 1988.

In series [2] the test system is Arabidopsis AHAS protein. Particulars: no herbicide; for Specific Activity: b134 expresses specific activity as units/mg pure AHAS, 1 unit = 1 μmole acetolactate produced/hour; for % Catalytic Activity as Compared to Wild Type: relative to wild-type AHAS. On the procedure:
(a) specific or catalytic activity for conversion of pyruvate to acetolactate (expressed as units/mg pure AHAS, wherein a unit of activity is defined as 1 μmole acetolactate produced/hour), or for condensation of pyruvate and 2-ketobutyrate to form acetohydroxybutyrate (expressed as units/mg pure AHAS, wherein a unit of activity is defined as 1μ mole acetohydroxybutyrate produced/hr.;
as §1, §2

The subject of the next series is tobacco plants. Put plainly: Spraying of transformed tobacco plants with imazethapyr. The class given is in vivo, Nicotiana tabacum cv. Wisconsin 38. Particulars: twice the field rate (100 g/ha) of imazethapyr. On the procedure:
Leaf disc transformation of Nicotiana tabacum cv. Wisconsin 38 was performed as described by Horsch et al. (Science, 227: 1229-1231, 1985) with slight modifications. Leaf discs were cut from plants grown under sterile conditions and co-cultivated upsidedown in Murashige Skoog media (Sigma Chemical Co., St. Louis, Mo.) for 2-3 days at 25° C. in darkness with Agrobacterium tumefaciens strains containing plasmids pJK002, pJK003, or pJK004. The discs were blotted dry and transferred to regeneration Murashige Skoog medium with B5 vitamins containing 1 mg/L benzyladenine and 0.1 mg/l 1-Napthyl Acetic Acid, 100 mg/L kanamycin, and 500 mg/L cefotaxime (all obtained from Sigma).
Kanamycin-resistant tobacco shoots were transferred to medium containing a 0.25 μM imazethapyr.

Another series concerns the target T1, Maize AHAS (Zea mays, UniProt Q41769).
T1 construct: residue #2 corresponds to the putative amino terminus of the mature protein, i.e., after removal of a chloroplast targeting peptide; GST (glutathione S-transferase, pGEX-2T) (N, cleaved yes); made in house; host or cells: E. coli (DH5α), pGEX-2T vector pAC751
T1 sequence (Q41769 40-638): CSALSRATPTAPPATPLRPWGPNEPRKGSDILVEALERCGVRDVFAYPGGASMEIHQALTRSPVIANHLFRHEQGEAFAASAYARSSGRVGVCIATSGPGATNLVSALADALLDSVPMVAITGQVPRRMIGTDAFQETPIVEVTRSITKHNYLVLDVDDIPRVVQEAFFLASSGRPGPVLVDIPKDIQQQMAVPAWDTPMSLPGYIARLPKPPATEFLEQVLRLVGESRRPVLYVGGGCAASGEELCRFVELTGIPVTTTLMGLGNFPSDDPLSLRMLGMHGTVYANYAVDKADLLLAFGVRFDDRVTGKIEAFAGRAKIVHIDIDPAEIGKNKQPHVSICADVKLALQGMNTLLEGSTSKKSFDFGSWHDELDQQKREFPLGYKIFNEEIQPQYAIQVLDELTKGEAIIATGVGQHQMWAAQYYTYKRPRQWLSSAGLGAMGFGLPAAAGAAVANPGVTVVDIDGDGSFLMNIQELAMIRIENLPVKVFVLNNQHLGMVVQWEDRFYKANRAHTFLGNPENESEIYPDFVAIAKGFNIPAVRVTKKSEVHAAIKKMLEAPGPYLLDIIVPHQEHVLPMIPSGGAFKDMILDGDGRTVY
Kind of series: Enzymatic activity and cofactor dependence of purified maize AHAS expressed from pAC751. The class given is biochemical. As to the method:
E. coli (DH5α) cells transformed with the pGEX-2T vector containing either the maize wild type AHAS gene (vector designation pAC751), the Arabidopsis Ser653Asn mutant, or the Arabidopsis Ile401Phe mutant were grown overnight in LB broth containing 50 μg/mL ampicillin. The overnight culture of E. coli was diluted 1:10 in 1 L LB, 50 μg/mL ampicillin, and 0.1% v/v antifoam A. The culture was incubated at 37° C. with shaking until the OD600 reached approximately 0.8. Isopropylthiogalactose (IPTG) was added to a final concentration of 1 mM and the culture was incubated for 3 more hours.
Cells were harvested by centrifugation at 8,670×g for 10 minutes in a JA-10 rotor and resuspended in 1/100th of the original culture volume in MTPBS (16 mM Na2HPO4, 4 mM NaH2PO4, 150 mM NaCl, pH 7.3). Triton X-100 and lysozyme were added to a final concentration of 1% v/v and 100 μg/mL, respectively. Cells were incubated at 30° C. for 15 minutes cooled to 4° C. on ice, and were lysed by sonication for 10 seconds at level 7 with a Branson Sonifier Cell Disrupter equipped with a microtip probe. The cell free extract was centrifuged at 35,000×g for 10 min. at 4° C. The supernatant was decanted and the centrifugation step was repeated.
Purification of expressed fusion proteins was performed as modified from Smith and Johnson (Gene 67:31-40, 1988). […]

The format of series [3] is physicochemical, Zea mays. As to the method: The fusion protein was digested overnight at room temperature. Digested samples were dialyzed against MTPBS and passed twice through a glutathione-agarose column equilibrated in MTPBS to remove the released glutathione transferase protein. […] The concentrated sample was loaded onto a 1.5×95 cm Sephacryl S-100 gel filtration column equilibrated in gel filtration buffer (50 mM HEPES, 150 mM NaCl, pH 7.0). Two mL fractions were collected at a flow rate of 0.14 mL/min. Enzyme stability was tested by storage of the enzyme at 4° C. in gel filtration buffer with the addition of 0.02% sodium azide and in the presence or absence of 2 mM thiamine pyrophosphate and 100 μM flavin adenine dinucleotide (FAD).
Maize AHAS expressed and purified from pAC751 as described in Example 3 above is active in the conversion of pyruvate to acetolactate. Full AHAS activity is dependent on the presence of the cofactors FAD and TPP in the assay medium. […] The activity of the purified enzyme with TPP only, or with no cofactors, was less than 1% of the activity detected in the presence of both TPP and FAD. Normally, AHAS present in crude plant extracts is very labile, particularly in the absence of substrate and cofactors.

B1: Met124Ile: Arabidopsis AHAS variant (and gene) with Met124Ile mutation, corresponding to maize Met53Ile; vector pJK002 (protein, UniProt P17597 56-670, looked up, variant M124I)
Acetolactate synthase, …: SSSPSSISAVLNTTTNVTTTPSPTKPTKPETFISRFAPDQPRKGADILVEALERQGVETVFAYPGGASIEIHQALTRSSSIRNVLPRHEQGGVFAAEGYARSSGKPGICIATSGPGATNLVSGLADALLDSVPLVAITGQVPRRMIGTDAFQETPIVEVTRSITKHNYLVMDVEDIPRIIEEAFFLATSGRPGPVLVDVPKDIQQQLAIPNWEQAMRLPGYMSRMPKPPEDSHLEQIVRLISESKKPVLYVGGGCLNSSDELGRFVELTGIPVASTLMGLGSYPCDDELSLHMLGMHGTVYANYAVEHSDLLLAFGVRFDDRVTGKLEAFASRAKIVHIDIDSAEIGKNKTPHVSVCGDVKLALQGMNKVLENRAEELKLDFGVWRNELNVQKQKFPLSFKTFGEAIPPQYAIKVLDELTDGKAIISTGVGQHQMWAAQFYNYKKPRQWLSSGGLGAMGFGLPAAIGASVANPDAIVVDIDGDGSFIMNVQELATIRVENLPVKVLLLNNQHLGMVMQWEDRFYKANRAHTFLGDPAQEDEIFPNMLLFAAACGIPAARVTKKADLREAIQTMLDTPGPYLLDVICPHQEHVLPMIPSGGTFNDVITEGDGRIKY
For B1, the “resistance of enzymatic activity to imazethapyr (PURSUIT)” value (from here on “resistance of enzymatic activity”) with Arabidopsis AHAS protein [1] is listed as “significant level of imidazolinone resistance”. Besides, in the series on Arabidopsis AHAS protein [2], the “Specific Activity” value is reported as 102 and the “% Catalytic Activity as Compared to Wild Type” value (shortened to “% Catalytic Activity”) came out at 102%. In the series on tobacco plants, the “resistance of transformed tobacco plants to spraying with imazethapyr” value is recorded as “resistant”.

B2: Met124His: Arabidopsis AHAS variant (and gene) with Met124His mutation, corresponding to maize Met53His; vector pJK003 (protein, UniProt P17597 56-670, looked up, variant M124H)
Acetolactate synthase, …: B1 Acetolactate synthase, … with I69H
As for B2, in the series with Arabidopsis AHAS protein [1], the “resistance of enzymatic activity” value is listed as “high degree of resistance”. For the same molecule, in the series on Arabidopsis AHAS protein [2], the “Specific Activity” value is on record as 42.5 and the “% Catalytic Activity” value came to 42.6%.

B3: Arg199Glu: Arabidopsis AHAS variant (and gene) with Arg199Glu mutation, corresponding to maize Arg128Glu; vector pJK004 (protein, UniProt P17597 56-670, looked up, variant R199E)
Acetolactate synthase, …: B1 Acetolactate synthase, … with I69M, R144E
Turning to B3, the “resistance of enzymatic activity” value in the series with Arabidopsis AHAS protein [1] was “improved levels of resistance”. Besides, in the series on Arabidopsis AHAS protein [2], the “Specific Activity” value was 114 and the “% Catalytic Activity” value amounted to 114%. In addition, in the series with tobacco plants, the “resistance of transformed tobacco plants to spraying with imazethapyr” value is “resistant”.

B4: Maize AHAS: wild type maize AHAS expressed from pAC751 in E. coli and purified, 65 kD (SEQ ID NO:1) (protein)
chain: GSAASPAMPMAPPATPLRPWGPTDPRKGADILVESLERCGVRDVFAYPGGASMEIHQALTRSPVIANHLFRHEQGEAFAASGYARSSGRVGVCIATSGPGATNLVSALADALLDSVPMVAITGQVPRRMIGTDAFQETPIVEVTRSITKHNYLVLDVDDIPRVVQEAFFLASSGRPGPVLVDIPKDIQQQMAVPVWDKPMSLPGYIARLPKPPATELLEQVLRLVGESRRPVLYVGGGCARSGEELRRFVELTGIPVTTTLMGLGNFPSDDPLSLRMLGMHGTVYANYAVDKADLLLALGVRFDDRVTGKIEAFASRAKIVHVDIDPAEIGKNKQPHVSICADVKLALQGMNALLEGSTSKKSFDFGSWNDELDQQKREFPLGYKYSNEEIQPQYAIQVLDELTKGEAIIGTGVGQHQMWAAQYYTYKRPRQWLSSAGLGAMGFGLPAAAGASVANPGVTVVDIDGDGSFLMNVQELAMIRIENLPVKVFVLNNQHLGMVVQWEDRFYKANRAHTYLGNPENESEIYPDFVTIAKGFNIPAVRVTKKNEVRAAIKKMLETPGPYLLDIIVPHQEHVLPMIPSGGAFKDMILDGDGRTVY
modifications: Zea Mays
For the molecule B4, the “AHAS activity when only FAD was added to the assay medium” value in the series with Maize AHAS (FAD only, no TPP) is reported as “No activity was detected”. Further, the “activity with TPP only, or with no cofactors, relative to activity in the presence of both TPP and FAD” value in the series with Maize AHAS (TPP only or no cofactors) is “less than 1%”. The “degradation products in SDS-PAGE gels after storage” value in series [3] is given as “no degradation products were visible”. Besides, the “catalytic activity after storage” value in series [3] (one month at 4° C. in 50 mm HEPES pH 7.0, 150 mM NaCl, 0.02% NaN3, presence or absence of FAD and TPP) is “no lose in catalytic activity”.

(Values after patent US6576455B1, “Structure-based designed herbicide resistant products” (priority 1995, dated 2003).)
